“And” between values parts separate entries of the source, which are not always exact repeats. Equal values may be shown once.

As a reminder, the EC50 is the midpoint of the concentration-response curve. As a reminder, the IC50 is the concentration at which inhibition is half-maximal.

In experiment [1] the target is T1, Recombinant human ANG-2 (R&D Systems, Cat #623-AN-025/CF) (human, UniProt O15123 19-496, limits assumed).
T1 construct: also called rhANG-2
T1 sequence (looked up): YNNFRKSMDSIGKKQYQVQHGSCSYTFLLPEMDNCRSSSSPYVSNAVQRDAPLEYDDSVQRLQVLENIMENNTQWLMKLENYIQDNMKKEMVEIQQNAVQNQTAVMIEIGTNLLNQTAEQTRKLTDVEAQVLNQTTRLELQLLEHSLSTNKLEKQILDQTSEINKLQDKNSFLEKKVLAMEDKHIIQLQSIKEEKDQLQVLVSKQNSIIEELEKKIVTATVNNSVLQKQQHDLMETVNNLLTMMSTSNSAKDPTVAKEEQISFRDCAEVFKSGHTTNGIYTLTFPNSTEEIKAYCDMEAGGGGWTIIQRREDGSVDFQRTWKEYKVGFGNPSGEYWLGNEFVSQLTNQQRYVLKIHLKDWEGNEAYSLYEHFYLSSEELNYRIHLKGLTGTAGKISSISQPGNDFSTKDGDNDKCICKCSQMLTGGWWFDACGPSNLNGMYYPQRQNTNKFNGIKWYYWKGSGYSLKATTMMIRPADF
The experiment in a line: ELISA on rhANG-2 by an independent team; first of three runs by an independent team (average 0.0491 nM). In general terms: An ELISA detects its analyte on a solid surface through an enzyme-linked reagent.

Experiment [2] addresses T2, Recombinant human VEGF165 (Peprotech, Cat #100-20) (human, UniProt P15692-4 27-191).
T2 construct: Bought protein; also called rhVEGF165; rh VEGF165
The experiment in a line: ELISA on coated human VEGF-A (rhVEGF165).

Experiment [3] addresses T3, His-tagged recombinant human ANG-2 (AcroBiosystems, Cat #AN2-H52H4) (human, UniProt O15123 275-496).
T3 construct: also called rhANG-2; rhANG-2-His; not shown: His tag
T3 sequence (looked up): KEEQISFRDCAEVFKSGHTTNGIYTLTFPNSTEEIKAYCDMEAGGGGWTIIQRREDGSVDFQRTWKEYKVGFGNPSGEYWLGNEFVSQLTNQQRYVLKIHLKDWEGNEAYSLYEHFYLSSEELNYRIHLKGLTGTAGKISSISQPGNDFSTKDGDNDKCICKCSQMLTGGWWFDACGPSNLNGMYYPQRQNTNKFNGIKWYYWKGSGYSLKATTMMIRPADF
Briefly: competition ELISA; His-tagged rhANG-2 in solution, competitor coated rhTie-2-Fc.

In experiment [4] the target is T3, His-tagged recombinant human ANG-2 …. The experiment in a line: ELISA EC50 on rhANG-2, against Faricimab. The protocol:
Donkey anti-human IgG Fcγ-HRP (Jackson ImmunoResearch Laboratories, Cat #709-035-098) was used for detection and visualized by TMB substrate. OD450 nm readings were measured by Victor 3 with PerkinElmer 1420 Multilabel Counter.

In experiment [5] the target is T4, rdANG-2 (canine/dog; Creative Biolab_Vang-3062Lsx) (Canine/Dog, UniProt A0A8J8 19-495, limits assumed).
T4 construct: also called Dog ANG-2
T4 sequence (looked up): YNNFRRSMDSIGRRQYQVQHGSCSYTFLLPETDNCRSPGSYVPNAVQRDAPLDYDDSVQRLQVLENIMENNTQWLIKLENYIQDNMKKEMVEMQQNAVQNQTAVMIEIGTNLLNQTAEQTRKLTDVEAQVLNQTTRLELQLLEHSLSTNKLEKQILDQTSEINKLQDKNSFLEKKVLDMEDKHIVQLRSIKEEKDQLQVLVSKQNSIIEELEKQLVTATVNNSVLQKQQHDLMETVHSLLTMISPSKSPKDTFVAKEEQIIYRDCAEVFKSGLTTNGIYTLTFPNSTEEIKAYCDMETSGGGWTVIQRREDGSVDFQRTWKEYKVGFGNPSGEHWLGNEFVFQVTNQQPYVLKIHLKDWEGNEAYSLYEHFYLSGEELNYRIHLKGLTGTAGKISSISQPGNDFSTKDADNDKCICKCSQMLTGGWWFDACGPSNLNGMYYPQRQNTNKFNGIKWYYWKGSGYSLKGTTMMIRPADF
The experiment in a line: ELISA on coated dog ANG-2.

Experiment [6] deals with T2, Recombinant human VEGF165 (Peprotech, …). Briefly: competition ELISA; IC50 ratio against Faricimab for inhibition of VEGF165-VEGF R2/KDR binding. Here is the method:
The mixture was added to ELISA binding plates which contained rhVEGF₁₆₅ coating. […] The receptor binding was detected by HRP-conjugated streptavidin (Jackson ImmunoResearch Laboratories, Cat #016-030-084) and visualized by TMB substrate.

The target of experiment [7] is T5, rrVEGF165 (rabbit; Kingfisher Biotech_RP1025U-025) (Rabbit, UniProt P49151 27-190 (pig entry)).
T5 construct: Bought protein; also called Rabbit VEGF-A
T5 chain: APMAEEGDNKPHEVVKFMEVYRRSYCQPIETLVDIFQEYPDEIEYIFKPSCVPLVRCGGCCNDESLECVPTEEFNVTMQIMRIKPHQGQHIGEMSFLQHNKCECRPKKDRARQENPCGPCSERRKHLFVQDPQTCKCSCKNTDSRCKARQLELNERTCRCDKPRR
The experiment in a line: ELISA on coated rabbit VEGF-A.

Experiment [8] deals with T1, Recombinant human ANG-2 (R&D Systems, …). Briefly: ELISA; rhANG-2 (R&D) coated, anti-human IgG Fc-HRP detection. The source says:
The binding was detected by HRP-conjugated donkey anti-human IgG Fcγ antibody (Jackson ImmunoResearch Laboratories, Cat #709-035-098).

B1: RO-101 VEGF/ANG-2 bispecific surrobody (bispecific antibody, human IgG1, L234A L235A)
heavy 1: not shown
heavy 2: EVQLVESGGGLVKPGGSLRLSCAASGFTFSSYGMHWVRQAPGKGLEWVAGISADSGDKNYADSVKGRFTISRDNAKNSLYLQMNSLRAEDTAVYYCAKEFISWIYTFDYLDYWGQGTLVTVSSASTKGPSVFPLAPSSKSTSGGTAALGCLVKDYFPEPVTVSWNSGALTSGVHTFPAVLQSSGLYSLSSVVTVPSSSLGTQTYICNVNHKPSNTKVDKKVEPKSCDKTHTCPPCPAPEAAGGPSVFLFPPKPKDTLMISRTPEVTCVVVDVSHEDPEVKFNWYVDGVEVHNAKTKPREEQYNSTYRVVSVLTVLHQDWLNGKEYKCKVSNKALPAPIEKTISKAKGQPREPQVCTLPPSRDELTKNQVSLSCAVKGFYPSDIAVEWESNGQPENNYKTTPPVLDSDGSFFLVSKLTVDKSRWQQGNVFSCSVMHEALHNHYTQKSLSLSPG
light: QPVLHQPPAMSSALGTTIRLTCTLRNDHDIGVYSVYWYQQRPGHPPRFLLRYFSQSDKSQGPQVPPRFSGSKDVARNRGYLSISELQPEDEAMYYCAMGARSSVTHVFGSGTQLTVLSQPKATPSVTLFPPSSEELQANKATLVCLMNDFYPGILTVTWKADGTPITQGVEMTTPSKQSNNKYAASSYLSLTPEQWRSRRSYSCQVMHEGSTVEKTVAPAECS
notes: Format SgG1; also called Sample 1
As to B1, the EC50 in experiment [1] was 0.0526 nM; in experiment [2], 0.0171 nM; in experiment [5], 0.0135 nM; in experiment [7] it was 0.0334 nM; in experiment [8] it was 0.0536 nM and 0.0498 nM and 0.0449 nM. In addition, the IC50 in experiment [3] was determined as 0.787 nM. Further, in experiment [4], the “RO-101/Faricimab Fold” value was 53 fold. Moreover, the Fold in experiment [6] came out at 3.25 fold.

Values taken from patent US20250250330A1 (REVOPSIS THERAPEUTICS, published 2025).
